The values that follow are results of earlier work, collected in article PMC8100127.

For data set [1], the target named is CA 15-3 (MUC1) (UniProt P15941). The settings on record: No purified-protein binding assay in this paper (Kd values cited). TAS on plasma EVs: 0.1 uM Cy5-aptamer, 1x PBS, 2 mM MgCl2, 25 C, 2 h.
Data set [2] has as its target T1, VEGF K321N;internal_change (UniProt P15692).
T1 sequence: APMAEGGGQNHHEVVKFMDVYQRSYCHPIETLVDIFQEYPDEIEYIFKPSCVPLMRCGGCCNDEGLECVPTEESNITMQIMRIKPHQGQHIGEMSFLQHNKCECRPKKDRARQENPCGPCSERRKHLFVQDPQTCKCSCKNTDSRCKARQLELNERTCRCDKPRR
The settings on record: No purified-protein binding assay in this paper (Kd values cited). TAS on plasma EVs: 0.1 uM Cy5-aptamer, 1x PBS, 2 mM MgCl2, 25 C, 2 h.

Chain of CA 15-3 (MUC1) (P15941 24-1097): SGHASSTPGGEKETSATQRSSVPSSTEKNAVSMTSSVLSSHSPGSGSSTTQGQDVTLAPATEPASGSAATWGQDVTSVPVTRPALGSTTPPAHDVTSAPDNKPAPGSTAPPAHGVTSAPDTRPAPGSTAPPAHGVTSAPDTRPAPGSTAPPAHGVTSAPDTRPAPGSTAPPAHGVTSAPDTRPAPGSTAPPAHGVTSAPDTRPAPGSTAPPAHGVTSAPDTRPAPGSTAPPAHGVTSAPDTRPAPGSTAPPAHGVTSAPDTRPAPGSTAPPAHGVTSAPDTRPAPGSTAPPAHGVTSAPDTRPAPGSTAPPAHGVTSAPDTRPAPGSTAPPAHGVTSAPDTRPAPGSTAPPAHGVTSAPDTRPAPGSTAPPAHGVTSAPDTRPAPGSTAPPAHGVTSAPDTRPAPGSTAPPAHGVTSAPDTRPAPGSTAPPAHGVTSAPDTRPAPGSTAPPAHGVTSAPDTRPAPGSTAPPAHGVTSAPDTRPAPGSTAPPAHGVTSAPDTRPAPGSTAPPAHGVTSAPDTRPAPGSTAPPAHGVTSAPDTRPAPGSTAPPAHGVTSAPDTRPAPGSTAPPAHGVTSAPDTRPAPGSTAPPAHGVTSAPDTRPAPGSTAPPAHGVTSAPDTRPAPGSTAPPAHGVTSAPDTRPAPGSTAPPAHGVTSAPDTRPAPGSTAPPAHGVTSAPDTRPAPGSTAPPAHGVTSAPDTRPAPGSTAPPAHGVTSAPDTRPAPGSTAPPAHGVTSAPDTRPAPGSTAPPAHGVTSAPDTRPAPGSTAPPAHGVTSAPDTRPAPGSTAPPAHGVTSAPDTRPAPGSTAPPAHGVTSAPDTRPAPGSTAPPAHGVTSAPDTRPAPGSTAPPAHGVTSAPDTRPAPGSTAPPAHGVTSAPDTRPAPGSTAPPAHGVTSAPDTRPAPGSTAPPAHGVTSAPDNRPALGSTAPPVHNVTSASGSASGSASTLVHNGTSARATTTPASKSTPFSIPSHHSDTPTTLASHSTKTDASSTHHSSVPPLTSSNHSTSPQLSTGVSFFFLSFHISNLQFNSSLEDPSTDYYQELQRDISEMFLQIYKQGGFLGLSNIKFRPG

The term Kd denotes the free concentration of one partner at which half of the binding sites on the other are occupied at equilibrium, for simple one-to-one binding. Regarding “GCAGTTGATCCTTTGGATACCCTGG [CA 15-3 aptamer]”, the Kd in data set [1] is 0.135 nM.

As for “TTCCCGTCTTCCAGACAAGAGTGCAGGG [VEGF aptamer]”, in data set [2], the Kd was 400 nM.
